Patent US6518401B2, “Tumor necrosis factor stimulated gene 6 (TSG-6) protein” (New York University, priority 1991, dated 2003)

Key:
[1] = target: T1, IαI purified from human serum (Homo sapiens, UniProt P02760+P19823); assay: TSG-6/IαI complex formation with purified proteins (SDS-PAGE, Western blot); assay type: binding
T1 construct: IαI is a complex protein in which the bikunin chain is linked to HC1 and HC2; supposed to determine the cleavage site for the C-terminal propeptide; from tissue; host or cells: human serum
Description: Purified recombinant TSG-6 protein (lane 1) and IαI purified from human serum (lane 2) were mixed and incubated for 2 min. (lane 3), 5 min. (lane 4), 10 min. (lane 5), 15 min. (lane 6), 30 min. (lane 7), or for 60 min. (lane 8) at 37° C. or for 60 min. at 0° C. (lane 9). The reaction mixtures were then separated by SDS-PAGE and subjected to Western blot analysis with rabbit anti-TSG-6 serum.
Four micrograms of purified IαI and 3 μg of purified TSG-6 protein were incubated separately for 16 hrs. at 37° C. in the absence or presence of 30 milliunits of chondroitin sulfate ABC lyase. Thereafter, control IαI was mixed with control TSG-6 protein (lane 1), chonroitinase-pretreated IαI was mixed with control TSG-6 (lane 2), and control IαI was reaction mixtured with chondroitinase-pretreated TSG-6 protein (lane 3). The reaction mixtures were incubated for 1 hr. at 37° C. before SDS-PAGE and Western blot analysis with anti-TSG-6 antibody.
(§1) Analysis of TSG-6 Binding to Carrier Protein. To determine the presence of TSG-6 binding protein, samples to be analyzed were mixed with an equal volume of TSG-6-containing serum-free supernatants of TN-5 B insect cells infected with recombinant Baculovirus and incubated at 37° C. for 30-60 min. (Purified TSG-6 protein was used in some experiments, as indicated.) Thereafter, the mixtures were analyzed for the presence of the 120-kDa complex by Western blotting with purified rabbit antibody to TSG-6 as described earlier (Wisniewski et al, J. Immunol. 151:6593-6601 (1993)). For detection of inter-α-inhibitor (IαI) epitopes by Western blotting, membranes were incubated with a rabbit anti-human IαI antibody (Dako) at a 1:2000 dilution for 1 hr.
Purification of IαI from Human Serum. IαI purified from human serum, according to Salier et al, Anal Biochem. 109:273-283 (1980), with some modifications. FPLC on Q Sepharose Fast Flow was used instead of DEAE-Sephacel chromatography. Chelating Sepharose Fast Flow was used for zinc chelate chromatography. Phenyl Superose was used for Hydrophobic chromatography and Superdex 200 was used for size-exclusion chromatography instead of Sephacryl-300. The IαI recovered was essentially pure as judged by SDS-PAGE and silver staining.
Rapid Complex Formation between Recombinant TSG-6 Protein and IαI Purified from Human Serum at 37° C. The 120kDa TSG-6/IαI complex formed readily when purified TSG-6 protein and purified IαI were incubated together at 37° C. but not at 0° C. […] This IαI derivative appears to be a by product of the reaction of TSG-6 with IαI. It should be noted that the 120kDa TSG-6/IαI complex is formed by purified TSG-6 and IαI proteins in the apparent absence of other proteins.
Chondroitin Sulfate Associated with IαI Is Required for the Formation of the TSG-6/IαI Complex. […]

[2] = tested on: TSG-6 binding protein in serum; assay: TSG-6 binding to carrier protein in sera (120-kDa complex, Western blot); settings: recombinant human TSG-6 incubated with human, fetal bovine, rabbit, or mouse serum, 37° C.
Description: as §1
Binding of TSG-6 Protein to a Protein Present in Mammalian Sera and in Supernatants of Human HepG-2 Hepatoma Cells. […] Recombinant human TSG-6 protein produced in insect cells migrates somewhat faster than the 35-kDa TSG-6 protein from human cells (Wisniewski et al, J. Immunol. 151:6593-6601 (1993)) possibly due to s different extent of glycosylation. […] When TSG-6 containing culture upernatants were incubate at 37° C. in the presence of fetal bovine serum (lane 3), mouse serum (lane 7), or serum-free culture supernatant of human HepG-2 hepatoma cells (lane 5), an additional 120-kDa band became readily apparent. […]

[3] = Binding of TSG-6 protein to hyaluronic acid coupled to Sepharose (Western blot); parameters: species or system bovine
Description: To analyze the hyaluronic acid binding properties of the TSG-6 protein, hyaluronic acid was coupled to Sepharose (HA-Sepharose) to be used as a matrix for affinity chromatography.
To couple hyaluronic acid to Sepharose, 100 mg hyaluronic acid from bovine trachea (Sigma Chemicals) was dialyzed extensively against 0.5 M NaCl. Five ml EAH-Sepharose 4 B (Pharmacia) was washed extensively with 0.5 M NaCl and mixed with the hyaluronic acid solution. The pH was adjusted to 4.5 and 40 mg 1-(3-dimethylaminopropyl)-3-ethylcarbodiimide hydrochloride (Aldrich Chem. Co.), dissolved in 1 ml distilled water, was added dropwise under constant stirring. The pH was kept at 4.5 for 1 hr. After constantly stirring the reaction mixture overnight, 200 μl acetic acid were added for another 4 hr to block the remaining amino groups on the EAH-Sepharose. […]
To show the binding of TSG-6 protein to HA-Sepharose but not to a similarly activated and blocked control Sepharose matrix, concentrated serum-free supernatant of GSV-L5 cells was used. […] Thereafter, the supernatants were removed and analyzed by Western blotting with anti-TSG-6 antibody. […] After vigorous shaking and centrifugation the supernatants were removed, dialyzed against Tris buffered saline and analyzed by Western blotting (FIG. 15). […]

[4] = purified TSG-6 protein and purified IαI, 37° C.

T1 sequence (P02760 206-352 limits assumed): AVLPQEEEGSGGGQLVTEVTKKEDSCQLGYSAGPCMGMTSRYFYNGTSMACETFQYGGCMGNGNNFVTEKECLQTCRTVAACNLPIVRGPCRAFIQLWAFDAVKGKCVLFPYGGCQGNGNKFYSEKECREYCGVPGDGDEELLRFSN
T1 sequence (P19823 55-702 limits assumed): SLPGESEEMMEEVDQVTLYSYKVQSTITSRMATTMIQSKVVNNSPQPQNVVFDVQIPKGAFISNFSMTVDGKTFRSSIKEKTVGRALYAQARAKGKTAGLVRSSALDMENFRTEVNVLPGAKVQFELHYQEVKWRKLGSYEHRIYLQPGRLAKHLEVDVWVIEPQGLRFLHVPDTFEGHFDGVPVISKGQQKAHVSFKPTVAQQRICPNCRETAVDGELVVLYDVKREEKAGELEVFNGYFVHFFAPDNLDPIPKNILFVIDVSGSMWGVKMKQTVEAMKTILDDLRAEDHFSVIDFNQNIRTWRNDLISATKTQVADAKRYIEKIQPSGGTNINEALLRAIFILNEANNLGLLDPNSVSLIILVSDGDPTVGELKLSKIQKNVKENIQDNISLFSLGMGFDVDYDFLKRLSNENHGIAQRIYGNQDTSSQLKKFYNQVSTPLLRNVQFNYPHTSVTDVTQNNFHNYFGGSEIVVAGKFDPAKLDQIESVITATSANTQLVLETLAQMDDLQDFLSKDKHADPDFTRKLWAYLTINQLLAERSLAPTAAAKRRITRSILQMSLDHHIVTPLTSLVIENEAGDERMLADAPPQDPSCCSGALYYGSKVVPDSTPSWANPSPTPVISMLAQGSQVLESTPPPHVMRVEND
T1 sequence (P98066 18-277 partner): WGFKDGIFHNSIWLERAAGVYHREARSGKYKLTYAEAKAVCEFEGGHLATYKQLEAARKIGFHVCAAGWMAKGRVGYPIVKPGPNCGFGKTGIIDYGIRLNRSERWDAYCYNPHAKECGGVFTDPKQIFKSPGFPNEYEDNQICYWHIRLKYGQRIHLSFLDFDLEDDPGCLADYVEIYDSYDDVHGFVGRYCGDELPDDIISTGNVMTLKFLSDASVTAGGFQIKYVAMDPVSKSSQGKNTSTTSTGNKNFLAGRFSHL

TSG-6 protein: cytokine-induced protein or glycoprotein, amino acid sequence SEQ ID NO:2; from GSV-L5 cells or Baculovirus-infected insect cells
ability to form the TSG-6/IαI complex after pretreatment of the protein with chondroitin sulfate ABC lyase ([1]; preincubated 16 hrs. at 37° C. with chondroitinase, then mixed with the untreated partner protein): little effect | TSG-6/IαI complex formation at 0° C. ([1]; purified TSG-6 protein and purified IαI, 0° C., within 1 hr.): little or no TSG-6/IαI complex was formed | time until TSG-6/IαI complex formation detectable [1, 4]: ≤ 2 min | time until complex formation reaction appeared complete [1, 4]: ≤ 10 min | complex formation on incubation with serum [2]: readily incorporated into a stable 120 kDa complex | binding of TSG-6 protein to HA-Sepharose ([3]; concentrated serum-free GSV-L5 culture supernatant, overnight at 4° C., elution with 3 M NaCl): bound virtually all the TSG-6 protein | binding of TSG-6 protein to control Sepharose matrix ([3]; control Sepharose without hyaluronic acid, same procedure): did not bind any detectable TSG-6 protein
